Data taken from patent US20100068215A1 (published 2010).
Numbering of substitutions follows the chain as printed. Names may count otherwise.

T1: GDF8 (UniProt O14793 267-375)
T1 construct: also called myostatin; Growth and Differentiation Factor-8
T1 sequence (looked up): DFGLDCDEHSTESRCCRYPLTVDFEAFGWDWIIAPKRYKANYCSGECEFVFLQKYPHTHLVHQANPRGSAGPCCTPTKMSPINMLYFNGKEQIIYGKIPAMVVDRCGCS

T2: Activin A (UniProt P08476 311-426)
T2 sequence (looked up): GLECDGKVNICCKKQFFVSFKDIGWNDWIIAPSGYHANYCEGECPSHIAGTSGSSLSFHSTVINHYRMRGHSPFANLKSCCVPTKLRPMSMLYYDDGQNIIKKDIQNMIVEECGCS

T3: Activin B (UniProt P09529 293-407)
T3 sequence (looked up): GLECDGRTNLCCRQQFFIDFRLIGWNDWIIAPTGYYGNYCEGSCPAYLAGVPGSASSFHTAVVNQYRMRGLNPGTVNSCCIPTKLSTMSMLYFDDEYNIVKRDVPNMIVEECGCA

B1: ActRIIB(A24N 20-134)-hFc (Fc fusion)
chain: GRGENETRECIYYNANWELERTNQSGLERCEGEQDKRLHCYASWRNSSGTIELVKKGCWLDDFNCYDRQECVATEENPQVYFCCCEGNFCNERFTHLPEAGGPEVTYEPPPTAPTGGG
notes: also called the A24N variant; not shown: human Fc domain (hFc)
B2: ActRIIB(R64K 20-134)-hFc (Fc fusion)
chain: B1 chain with N5A, R45K
notes: not shown: human Fc domain (hFc)
B3: ActRIIB(20-134)-hFc (Fc fusion)
chain: GRGEAETRECIYYNANWELERTNQSGLERCEGEQDKRLHCYASWRNSSGTIELVKKGCWLDDFNCYDRQECVATEENPQVYFCCCEGNFCNERFTHLPEAGGPEVTYEPPPTAPTGGGTHTCPPCPAPELLGGPSVFLFPPKPKDTLMISRTPEVTCVVVDVSHEDPEVKFNWYVDGVEVHNAKTKPREEQYNSTYRVVSVLTVLHQDWLNGKEYKCKVSNKALPVPIEKTISKAKGQPREPQVYTLPPSREEMTKNQVSLTCLVKGFYPSDIAVEWESNGQPENNYKTTPPVLDSDGSFFLYSKLTVDKSRWQQGNVFSCSVMHEALHNHYTQKSLSLSPGK
B4: ActRIIB(K74A 20-134)-hFc (Fc fusion)
chain: B1 chain with N5A, K55A
notes: as for B2
B5: ActRIIB(P129S, P130R 20-134)-hFc (Fc fusion)
chain: B1 chain with N5A, P110S, P111R
notes: kept as two molecules; not shown: human Fc domain (hFc)
B6: ActRIIB(R64K 20-129)-hFc (Fc fusion)
chain: GRGEAETRECIYYNANWELERTNQSGLERCEGEQDKRLHCYASWKNSSGTIELVKKGCWLDDFNCYDRQECVATEENPQVYFCCCEGNFCNERFTHLPEAGGPEVTYEPPGGG
notes: as for B2
B7: ActRIIB(L79 25-131)-hFc (Fc fusion)
chain: ETRECIYYNANWELERTNQSGLERCEGEQDKRLHCYASWRNSSGTIELVKKGCWLDDFNCYDRQECVATEENPQVYFCCCEGNFCNERFTHLPEAGGPEVTYEPPPTGGG
notes: also called ActRIIB(25-131)-hFc; not shown: human Fc domain (hFc)
B8: GDF11 (ligand, UniProt O95390 299-407, looked up)
chain: NLGLDCDEHSSESRCCRYPLTVDFEAFGWDWIIAPKRYKANYCSGQCEYMFMQKYPHTHLVQQANPRGSAGPCCTPTKMSPINMLYFNDKQQIIYGKIPGMVVDRCGCS
notes: also called Growth and Differentiation Factor-11; BMP11
B9: ActRIIB(21-131)-hFc (Fc fusion, not shown: a dimerising Fc or GST)
chain: RGEAETRECIYYNANWELERTNQSGLERCEGEQDKRLHCYASWRNSSGTIELVKKGCWLDDFNCYDRQECVATEENPQVYFCCCEGNFCNERFTHLPEAGGPEVTYEPPPTGGG
B10: ActRIIB(20-131)-hFc (Fc fusion, not shown: a dimerising Fc or GST)
chain: GRGEAETRECIYYNANWELERTNQSGLERCEGEQDKRLHCYASWRNSSGTIELVKKGCWLDDFNCYDRQECVATEENPQVYFCCCEGNFCNERFTHLPEAGGPEVTYEPPPTGGG
B11: ActRIIB(23-131)-hFc (Fc fusion, not shown: a dimerising Fc or GST)
chain: EAETRECIYYNANWELERTNQSGLERCEGEQDKRLHCYASWRNSSGTIELVKKGCWLDDFNCYDRQECVATEENPQVYFCCCEGNFCNERFTHLPEAGGPEVTYEPPPTGGG
B12: ActRIIB(24-131)-hFc (Fc fusion, not shown: a dimerising Fc or GST)
chain: AETRECIYYNANWELERTNQSGLERCEGEQDKRLHCYASWRNSSGTIELVKKGCWLDDFNCYDRQECVATEENPQVYFCCCEGNFCNERFTHLPEAGGPEVTYEPPPTGGG
B13: ActRIIB(20-132)-hFc (Fc fusion, not shown: a dimerising Fc or GST)
chain: GRGEAETRECIYYNANWELERTNQSGLERCEGEQDKRLHCYASWRNSSGTIELVKKGCWLDDFNCYDRQECVATEENPQVYFCCCEGNFCNERFTHLPEAGGPEVTYEPPPTAGGG
B14: ActRIIB(22-131)-hFc (Fc fusion, not shown: a dimerising Fc or GST)
chain: GEAETRECIYYNANWELERTNQSGLERCEGEQDKRLHCYASWRNSSGTIELVKKGCWLDDFNCYDRQECVATEENPQVYFCCCEGNFCNERFTHLPEAGGPEVTYEPPPTGGG
B15: ActRIIB(20-128)-hFc (Fc fusion, not shown: a dimerising Fc or GST)
chain: GRGEAETRECIYYNANWELERTNQSGLERCEGEQDKRLHCYASWRNSSGTIELVKKGCWLDDFNCYDRQECVATEENPQVYFCCCEGNFCNERFTHLPEAGGPEVTYEPGGG

The binders below were run against B8 (assay: Biacore; ActRIIB-Fc captured by anti-hFc antibody, ligand injected). Settings: not given.
Description: (§1) Binding of certain ActRIIB-Fc proteins and GDF Traps to ligands was tested in a BiaCore™ assay.
(§2) The ActRIIB-Fc variants or wild-type protein were captured onto the system using an anti-hFc antibody. Ligands were injected and flowed over the captured receptor proteins.

Row | Kd [nM] | koff [s⁻¹] | Binder
1 | 0.0519 | 6.35e-05 | B1
2 | 0.0356 | 2.41e-05 | B2
3 | 0.0842 | 0.000113 | B3

The binders below were run against T1, GDF8 in the same assay as above. Settings: not given.
Description: as §1, §2

Row | Kd [nM] | koff [s⁻¹] | Binder
4 | 0.0718 | 2.03e-05 | B4
5 | 1.67 | 0.00018 | B5
6 | 0.21 | 4.71e-05 | B2
7 | 2.15 | 0.000209 | B6
8 | 0.0935 | 3.45e-05 | B3

The binders below were run against T2, Activin A in the same assay as above. Settings: not given.
Description: as §1, §2

Row | Kd [nM] | koff [s⁻¹] | kon [M⁻¹ s⁻¹] | Binder
9 | 0.104 | 0.000346 | 3.34e+06 | B1
10 | 0.0831 | 0.000417 | 5.02e+06 | B5
11 | 0.0476 | 0.000325 | 6.82e+06 | B2
12 | 0.0841 | 0.000628 | 7.46e+06 | B6
13 | 0.0268 | 0.000159 | 5.94e+06 | B3

What follows are binders tested against B8 (assay: Biacore, steady-state affinity fit). Settings: not given.
Description: (§3) The affinity of GDF Traps and other ActRIIB-hFc proteins for several ligands was evaluated in vitro with a Biacore™ instrument. Kd values were obtained by steady-state affinity fit due to the very rapid association and dissociation of the complex, which prevented accurate determination of kₒₙ and koff.

Row | Kd [nM] | Binder
14 | 0.036 | B3

These binders were tested against T3, Activin B (assay: Biacore, steady-state affinity fit). Settings: not given.
Description: as §3

Row | Kd [nM] | Binder
15 | 0.012 | B7
16 | 0.012 | B3

These binders were tested against B7 (assay: Biacore, steady-state affinity fit). Settings: not given.
Description: as §3

Row | Kd [nM] | Binder
17 | 0.031 | B8

The binders below were run against T2, Activin A (assay: Biacore, steady-state affinity fit). Settings: not given.
Description: as §3

Row | Kd [nM] | Binder
18 | 0.018 | B7
19 | 0.016 | B3

Each binder was assayed against B8 (assay: cell-based or functional assay). Settings: not given.

Row | IC50 (ng/mL), A-204 reporter gene assay, conditioned media [ng/mL] | Binder
20 | 121 | B9
21 | 183 | B10
22 | 60 | B11
23 | 69 | B12
24 | 87 | B13
25 | 71 | B14
26 | 45 | B3
27 | 130 | B15

Same assay, conditions: record 2

Row | IC50 (ng/mL), A-204 reporter gene assay, conditioned media [ng/mL] | Binder
28 | 120 | B10

The binders below were run against T2, Activin A (assay: cell-based or functional assay). Settings: not given.

Row | IC50 (ng/mL), A-204 reporter gene assay, conditioned media [ng/mL] | Binder
29 | 325 | B9
30 | 201 | B10
31 | 43 | B11
32 | 105 | B12
33 | 32 | B13
34 | 100 | B14
35 | 22 | B3
36 | 158 | B15

Same assay, conditions: record 2

Row | IC50 (ng/mL), A-204 reporter gene assay, conditioned media [ng/mL] | Binder
37 | 44 | B10
